In paper PMC6389284, “Heterodimerization of UNC-13/RIM regulates synaptic vesicle release probability but not priming in C. elegans” (eLife, 2019):

Assays:
[1] = biological target: T1, C. elegans UNC-13 long isoform residues 1-258 bearing the K49E mutation (C. elegans, UniProt P27715 1-258, K49E); experiment: ITC; Nano ITC (TA Instruments), 20 mM HEPES pH 7.5, 150 mM NaCl, 25°C; one site independent binding model; UNC-13L 1-258 K49E at 21 µM, UNC-10 62-121 WT at 140 µM or K77/79E at 116 µM; details: both partners purified
T1 construct: UNC-13 long isoform, C. elegans, residues 1-258 with K49E; expressed from pGEX6p1; Residues left by HRV3C cleavage of the pGEX6p1 fusion are not described; also called UNC-13L residues 1-258; UNC-13L C2A domain; source: E. coli Rosetta2 (DE3), purified (glutathione sepharose, HRV3C cleavage on beads, Superdex 75)
T1 sequence (looked up): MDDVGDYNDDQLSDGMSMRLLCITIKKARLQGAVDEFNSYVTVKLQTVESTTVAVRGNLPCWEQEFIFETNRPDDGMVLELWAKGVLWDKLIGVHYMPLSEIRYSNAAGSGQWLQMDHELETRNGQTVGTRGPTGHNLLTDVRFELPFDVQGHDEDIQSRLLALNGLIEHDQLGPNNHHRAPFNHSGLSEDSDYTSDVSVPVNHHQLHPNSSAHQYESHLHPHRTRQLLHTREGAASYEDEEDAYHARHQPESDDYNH

[2] = biological target: T2, C. elegans UNC-13 long isoform residues 1-258 bearing the K49E mutation (C. elegans, UniProt P27715 1-258, K49E); experiment: ITC
T2 sequence: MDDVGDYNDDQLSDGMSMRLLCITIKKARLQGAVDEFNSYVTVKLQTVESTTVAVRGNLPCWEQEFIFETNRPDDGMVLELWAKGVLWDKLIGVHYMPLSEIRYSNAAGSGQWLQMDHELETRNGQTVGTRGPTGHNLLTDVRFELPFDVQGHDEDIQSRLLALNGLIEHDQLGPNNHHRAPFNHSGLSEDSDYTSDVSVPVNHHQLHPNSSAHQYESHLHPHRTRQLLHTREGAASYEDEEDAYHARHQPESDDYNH

Kd [1]: 1.29 µM
Ka [2]: 789000 M⁻¹
B1: C. elegans UNC-10 residues 62-121 WT (domain or fragment, UniProt Q22366 62-121, looked up)
chain: KLVGTQDDAICQICQKTKFADGIGHKCFYCQLRSCARCGGRAQSKNKAIWACSLCQKRQQ
notes: expressed from pGEX6p1; also called UNC-10/RIM ZF domain; source: E. coli Rosetta2 (DE3), grown with ZnSO4, purified (glutathione sepharose, HRV3C cleavage on beads, Superdex 75)
